Measurements from paper doi:10.1101/2022.07.21.500988, “Molecular insight into the enzymatic macrocyclization of multiply backbone N-methylated peptides” (bioRxiv, 2022).

Target: T1, OphP(S580A) (Omphalotus olearius, S580A)
T1 construct: also called OphP variant S580A
T1 chain: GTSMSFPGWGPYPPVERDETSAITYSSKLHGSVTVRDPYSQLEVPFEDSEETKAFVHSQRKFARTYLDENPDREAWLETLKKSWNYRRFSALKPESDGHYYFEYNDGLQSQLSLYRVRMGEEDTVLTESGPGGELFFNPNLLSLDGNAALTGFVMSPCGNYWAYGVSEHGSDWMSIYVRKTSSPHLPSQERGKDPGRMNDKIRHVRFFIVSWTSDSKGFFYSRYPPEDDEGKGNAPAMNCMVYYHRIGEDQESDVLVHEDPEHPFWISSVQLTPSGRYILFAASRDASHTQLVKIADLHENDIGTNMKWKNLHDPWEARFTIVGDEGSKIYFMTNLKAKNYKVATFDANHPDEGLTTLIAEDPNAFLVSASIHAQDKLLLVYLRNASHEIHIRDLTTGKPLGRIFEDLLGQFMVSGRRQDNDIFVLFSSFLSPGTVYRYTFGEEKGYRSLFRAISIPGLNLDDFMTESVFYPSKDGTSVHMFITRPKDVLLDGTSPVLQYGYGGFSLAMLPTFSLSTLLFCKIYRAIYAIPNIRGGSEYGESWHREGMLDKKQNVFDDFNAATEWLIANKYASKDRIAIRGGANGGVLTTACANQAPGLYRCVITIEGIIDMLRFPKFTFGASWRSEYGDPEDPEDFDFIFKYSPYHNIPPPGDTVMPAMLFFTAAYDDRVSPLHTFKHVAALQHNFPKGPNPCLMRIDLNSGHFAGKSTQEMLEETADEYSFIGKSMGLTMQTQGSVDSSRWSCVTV
Assay: crystal structure
Conditions: both partners purified

GFPWVIVVGVIGVIG [Oph-15mer]: binds.

WVIVVGVIGVIGSVMSTE (also called 18mer^CF) [Oph-18mer^NL]: binds.
